Laboratory results from US20180086849A1 (Hoffmann-La Roche, published 2018).

Target: T1, human CEA (Carcinoembryonic antigen) on cells (human, UniProt P06731 35-685)
T1 sequence (looked up): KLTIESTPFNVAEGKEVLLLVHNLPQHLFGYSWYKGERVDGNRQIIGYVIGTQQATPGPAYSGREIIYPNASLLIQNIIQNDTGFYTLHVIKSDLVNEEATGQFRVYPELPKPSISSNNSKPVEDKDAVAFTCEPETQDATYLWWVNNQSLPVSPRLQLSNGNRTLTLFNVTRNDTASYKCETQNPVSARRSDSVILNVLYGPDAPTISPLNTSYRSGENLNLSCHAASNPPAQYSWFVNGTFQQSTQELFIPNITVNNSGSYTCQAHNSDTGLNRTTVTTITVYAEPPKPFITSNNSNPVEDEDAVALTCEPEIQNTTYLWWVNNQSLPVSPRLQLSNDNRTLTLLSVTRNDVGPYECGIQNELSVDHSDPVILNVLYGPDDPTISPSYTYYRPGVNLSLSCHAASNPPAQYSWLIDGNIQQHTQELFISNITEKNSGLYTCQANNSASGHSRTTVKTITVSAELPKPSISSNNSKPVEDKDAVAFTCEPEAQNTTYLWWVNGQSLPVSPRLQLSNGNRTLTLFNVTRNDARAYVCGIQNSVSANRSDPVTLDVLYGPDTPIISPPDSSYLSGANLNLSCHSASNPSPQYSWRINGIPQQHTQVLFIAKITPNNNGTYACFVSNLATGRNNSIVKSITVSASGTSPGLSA
Assay: cell-based or functional assay

B1: 1+1 IgG-Crossfab light chain fusion (CH1A1A/V9), anti-CEA/anti-huCD3 (bispecific antibody)
chain 1: DIQMTQSPSSLSASVGDRVTITCRASQDIRNYLNWYQQKPGKAPKLLIYYTSRLESGVPSRFSGSGSGTDYTLTISSLQPEDFATYYCQQGNTLPWTFGQGTKVEIKSSASTKGPSVFPLAPSSKSTSGGTAALGCLVKDYFPEPVTVSWNSGALTSGVHTFPAVLQSSGLYSLSSVVTVPSSSLGTQTYICNVNHKPSNTKVDKKVEPKSC
chain 2: DIQMTQSPSSLSASVGDRVTITCKASAAVGTYVAWYQQKPGKAPKLLIYSASYRKRGVPSRFSGSGSGTDFTLTISSLQPEDFATYYCHQYYTYPLFTFGQGTKLEIKRTVAAPSVFIFPPSDEQLKSGTASVVCLLNNFYPREAKVQWKVDNALQSGNSQESVTEQDSKDSTYSLSSTLTLSKADYEKHKVYACEVTHQGLSSPVTKSFNRGECGGGGSGGGGSGGGGSGGGGSEVQLVESGGGLVQPGGSLRLSCAASGYSFTGYTMNWVRQAPGKGLEWVALINPYKGVSTYNQKFKDRFTISVDKSKNTAYLQMNSLRAEDTAVYYCARSGYYGDSDWYFDVWGQGTLVTVSSASVAAPSVFIFPPSDEQLKSGTASVVCLLNNFYPREAKVQWKVDNALQSGNSQESVTEQDSKDSTYSLSSTLTLSKADYEKHKVYACEVTHQGLSSPVTKSFNRGEC
chain 3: not shown
chain 4: DKTHTCPPCPAPEAAGGPSVFLFPPKPKDTLMISRTPEVTCVVVDVSHEDPEVKFNWYVDGVEVHNAKTKPREEQYNSTYRVVSVLTVLHQDWLNGKEYKCKVSNKALGAPIEKTISKAKGQPREPQVCTLPPSRDELTKNQVSLSCAVKGFYPSDIAVEWESNGQPENNYKTTPPVLDSDGSFFLVSKLTVDKSRWQQGNVFSCSVMHEALHNHYTQKSLSLSPGK
- EC50 of T cell-mediated killing (LDH release) of LS-174T cells, human PBMCs, 28 h: 1.56 nM
- EC50 of T cell-mediated killing (LDH release) of MC38-huCEA cells, human PBMCs, 24 h: ~3.2 nM
- EC50 of T cell-mediated killing (LDH release) of MKN-45 cells, human PBMCs, 28 h: 0.213 nM

B2: 2+1 IgG Crossfab, inverted; VL/VH exchange (CH1A1A/V9), anti-CEA/anti-huCD3 (bispecific antibody)
chain 1: EVQLVESGGGLVQPGGSLRLSCAASGYSFTGYTMNWVRQAPGKGLEWVALINPYKGVSTYNQKFKDRFTISVDKSKNTAYLQMNSLRAEDTAVYYCARSGYYGDSDWYFDVWGQGTLVTVSSASVAAPSVFIFPPSDEQLKSGTASVVCLLNNFYPREAKVQWKVDNALQSGNSQESVTEQDSKDSTYSLSSTLTLSKADYEKHKVYACEVTHQGLSSPVTKSFNRGEC
chain 2: not shown
chain 3: QVQLVQSGAEVKKPGASVKVSCKASGYTFTEFGMNWVRQAPGQGLEWMGWINTKTGEATYVEEFKGRVTFTTDTSTSTAYMELRSLRSDDTAVYYCARWDFAYYVEAMDYWGQGTTVTVSSASTKGPSVFPLAPSSKSTSGGTAALGCLVKDYFPEPVTVSWNSGALTSGVHTFPAVLQSSGLYSLSSVVTVPSSSLGTQTYICNVNHKPSNTKVDKKVEPKSCDKTHTCPPCPAPEAAGGPSVFLFPPKPKDTLMISRTPEVTCVVVDVSHEDPEVKFNWYVDGVEVHNAKTKPREEQYNSTYRVVSVLTVLHQDWLNGKEYKCKVSNKALGAPIEKTISKAKGQPREPQVCTLPPSRDELTKNQVSLSCAVKGFYPSDIAVEWESNGQPENNYKTTPPVLDSDGSFFLVSKLTVDKSRWQQGNVFSCSVMHEALHNHYTQKSLSLSPGK
chain 4: DIQMTQSPSSLSASVGDRVTITCKASAAVGTYVAWYQQKPGKAPKLLIYSASYRKRGVPSRFSGSGSGTDFTLTISSLQPEDFATYYCHQYYTYPLFTFGQGTKLEIKRTVAAPSVFIFPPSDEQLKSGTASVVCLLNNFYPREAKVQWKVDNALQSGNSQESVTEQDSKDSTYSLSSTLTLSKADYEKHKVYACEVTHQGLSSPVTKSFNRGEC
- EC50 of T cell-mediated killing (LDH release) of LS-174T cells, human PBMCs, 28 h: 0.955 nM
- EC50 of T cell-mediated killing (LDH release) of MKN-45 cells, human PBMCs, 28 h: 0.243 nM
